# B1: KIAA0774 (parent)
# chain: FEDEVKRLGWQQQAELQELEERLQ
# Variants of: B1
# Assay: protein stability index of a GFP-peptide fusion (GPS, HEK-293T) (PSI 1-6); higher = more stable
# Conditions: c terminus: a fixed tail appended
# 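Further: lentivirally expressed fusions sorted by FACS into six bins by GFP to DsRed ratio, PSI derived from sequencing read proportions per bin multiplied by bin number.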
row,Variant,protein stability index
1,FEDEVKRLGWQQQAELQETEERLQ [L19T],4.65
2,FEDEVKRLGWQQQAELQENEERLQ [L19N],5.2
3,FEDEVKRLGWQQQAELQEDEERLQ [L19D],5.22
4,FEDEVKRLGWQQQAELQESEERLQ [L19S],4.39
5,FEDEVKRLGWQQQAELQEMEERLQ [L19M],4.42
6,FEDEVKRLGWQQQAELQEWEERLQ [L19W],3.92
7,FEDEVKRLGWQQQAELQEPEERLQ [L19P],5.42
8,FEDEVKRLGWAQQAELQELEERLQ [Q11A],3.64
9,FEDEVKRLGWTQQAELQELEERLQ [Q11T],3.3
10,FEDEVKRLGWDQQAELQELEERLQ [Q11D],5.16
11,FEDEVKRLGWRQQAELQELEERLQ [Q11R],4.44
12,FEDEVKRLGWYQQAELQELEERLQ [Q11Y],4.76
13,FEDEVKRLGWHQQAELQELEERLQ [Q11H],5.08
14,FEDEVKRLGWFQQAELQELEERLQ [Q11F],3.73
15,FEDEVKRLGWVQQAELQELEERLQ [Q11V],1.72
16,FEDEVKRLGWPQQAELQELEERLQ [Q11P],4.57
17,FEDEVKRLGWLQQAELQELEERLQ [Q11L],4.46
18,FEDEVKRLGWNQQAELQELEERLQ [Q11N],4.52
19,FEDEVKRLGWEQQAELQELEERLQ [Q11E],4.83
20,FEDEVKRLGWIQQAELQELEERLQ [Q11I],3.88
21,FEDEVKRLGWSQQAELQELEERLQ [Q11S],4.4
22,FEDEVKRLGWGQQAELQELEERLQ [Q11G],4.84
23,FEDEVKRLGWWQQAELQELEERLQ [Q11W],4.16
24,FEDEVKRLGWKQQAELQELEERLQ [Q11K],4.41

row,Variant,protein stability index
1,FEDEVKRLGWMQQAELQELEERLQ [Q11M],3.79
2,FEDEVKRLGWCQQAELQELEERLQ [Q11C],3.86
3,FEDEVKRLGWQQQAELQELFERLQ [E20F],2.51
4,FEDEVKRLGWQQQAELQELNERLQ [E20N],4.32
5,FEDEVKRLGWQQQAELQELIERLQ [E20I],3.74
6,FEDEVKRLGWQQQAELQELLERLQ [E20L],3.38
7,FEDEVKRLGWQQQAELQELAERLQ [E20A],4.08
8,FEDEVKRLGWQQQAELQELKERLQ [E20K],4.4
9,FEDEVKRLGWQQQAELQELGERLQ [E20G],3.05
10,FEDEVKRLGWQQQAELQELMERLQ [E20M],3.81
11,FEDEVKRLGWQQQAELQELCERLQ [E20C],4.34
12,FEDEVKRLGWQQQAELQELHERLQ [E20H],4.29
13,FEDEVKRLGWQQQAELQELPERLQ [E20P],4.8
14,FEDEVKRLGWQQQAELQELDERLQ [E20D],4.84
15,FEDEVKRLGWQQQAETQELEERLQ [L16T],5.08
16,FEDEVKRLGWQQQAEYQELEERLQ [L16Y],4.13
17,FEDEVKRLGWQQQAEEQELEERLQ [L16E],5.1
18,FEDEVKRLGWQQQAESQELEERLQ [L16S],4.91
19,FEDEVKRLGWQQQAENQELEERLQ [L16N],4.87
20,FEDEVKRLGWQQQAEMQELEERLQ [L16M],4.48
21,FEDEVKRLGWQQQAERQELEERLQ [L16R],4.04
22,FEDEVKRLGWQQQAEAQELEERLQ [L16A],4.34
23,FEDEVKRLGWQQQAEKQELEERLQ [L16K],4.88
24,FEDEVKRLGWQQQAEGQELEERLQ [L16G],5.23

row,Variant,protein stability index
1,FEDEVKRLGWQQQAEFQELEERLQ [L16F],4.15
2,FEDEVKRLGWQQQAEVQELEERLQ [L16V],4.86
3,FEDEVKRLGWQQQAEWQELEERLQ [L16W],3.93
4,FEDEVKRLGWQQQAEPQELEERLQ [L16P],5.24
5,FEDEVKRLGWQQQAEDQELEERLQ [L16D],5.11
6,FEDEVKRLGWQQQAEIQELEERLQ [L16I],3.89
7,FEDEVKRLGWQQQAEQQELEERLQ [L16Q],4.09
8,FEDEVKRLGWQQQAEHQELEERLQ [L16H],4.84
9,FEDEVKRLGWQQQAECQELEERLQ [L16C],4.75
10,FEDEVKRLGWQQQATLQELEERLQ [E15T],3.87
11,FEDEVKRLGWQQQAVLQELEERLQ [E15V],3.65
12,FEDEVKRLGWQQQAYLQELEERLQ [E15Y],2.65
13,FEDEVKRLGWQQQALLQELEERLQ [E15L],3.13
14,FEDEVKRLGWQQQASLQELEERLQ [E15S],4.05
15,FEDEVKRLGWQQQAALQELEERLQ [E15A],2.74
16,FEDEVKRLGWQQQAWLQELEERLQ [E15W],2.85
17,FEDEVKRLGWQQQAILQELEERLQ [E15I],2.64
18,FEDEVKRLGWQQQAPLQELEERLQ [E15P],3.71
19,FEDEVKRLGWQQQAMLQELEERLQ [E15M],3.32
20,FEDEVKRLGWQQQADLQELEERLQ [E15D],4.46
21,FEDEVKRLGWQQQANLQELEERLQ [E15N],4.51
22,FEDEVKRLGWQQQARLQELEERLQ [E15R],2.92
23,FEDEVKRLGWQQQACLQELEERLQ [E15C],3.39
24,FEDEVKRLGWQQQAGLQELEERLQ [E15G],3.85

row,Variant,protein stability index
1,FEDEVKRLGWQQQAHLQELEERLQ [E15H],3.53
2,FEDEVKRLGWQQQAKLQELEERLQ [E15K],3.2
3,FEDEVKRLGWQQQAFLQELEERLQ [E15F],2.42
4,FEDEVKRLGWQQQAELQHLEERLQ [E18H],3.37
5,FEDEVKRLGWQQQAELQKLEERLQ [E18K],4.41
6,FEDEVKRLGWQQQAELQGLEERLQ [E18G],4.68
7,FEDEVKRLGWQQQAELQLLEERLQ [E18L],2.63
8,FEDEVKRLGWQQQAELQNLEERLQ [E18N],3.94
9,FEDEVKRLGWQQQAELQSLEERLQ [E18S],4.7
10,FEDEVKRLGWQQQAELQILEERLQ [E18I],1.74
11,FEDEVKRLGWQQQAELQPLEERLQ [E18P],4.72
12,FEDEVKRLGWQQQAELQQLEERLQ [E18Q],3.91
13,FEDEVKRLGWQQQAELQCLEERLQ [E18C],3.17
14,FEDEVKRLGWQQQAELQMLEERLQ [E18M],2.89
15,FEDEVKRLGWQQQAELQRLEERLQ [E18R],2.74
16,FEDEVKRLGWQQQAELQTLEERLQ [E18T],4.47
17,FEDEVKRLGWQQQAELQYLEERLQ [E18Y],2.69
18,FEDEVKRLGWQQQAELQALEERLQ [E18A],3.84
19,FEDEVKRLGWQQQAELQVLEERLQ [E18V],3.84
20,FEDEVKRLGWQQQAELQFLEERLQ [E18F],2.13
21,FEDEVKRLGWQQQAELQWLEERLQ [E18W],2.4
22,FEDEVKRLGWQQQAELQDLEERLQ [E18D],4.61
